Here are results for two molecules from article PMC3940072 (Journal of molecular biology, 2013).

The series “cryo-EM structure” deals with the molecule itself. Nature of the series: cryo-EM structure.
Another series deals with T1, KaiC-R468C (Synechococcus elongatus, UniProt Q79PF4 1-519, R468C).
T1 sequence: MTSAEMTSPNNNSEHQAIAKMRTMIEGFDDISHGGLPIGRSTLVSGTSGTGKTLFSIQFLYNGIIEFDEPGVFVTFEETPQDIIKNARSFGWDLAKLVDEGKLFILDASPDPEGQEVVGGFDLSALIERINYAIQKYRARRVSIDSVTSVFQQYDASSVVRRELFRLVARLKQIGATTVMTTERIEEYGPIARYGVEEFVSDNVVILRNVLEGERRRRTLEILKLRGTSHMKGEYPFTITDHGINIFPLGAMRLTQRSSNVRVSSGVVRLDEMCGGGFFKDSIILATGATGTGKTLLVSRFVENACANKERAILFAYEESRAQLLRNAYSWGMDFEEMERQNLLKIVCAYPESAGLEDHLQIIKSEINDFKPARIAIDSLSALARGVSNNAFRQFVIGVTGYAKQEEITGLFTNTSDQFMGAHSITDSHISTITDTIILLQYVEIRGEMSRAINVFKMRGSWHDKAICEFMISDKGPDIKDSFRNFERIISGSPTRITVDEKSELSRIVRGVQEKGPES
As to the kind of experiment: native gel or EMSA. In general terms: In EMSA bound probe runs differently from free probe, usually more slowly.

B1: KaiC-Δ489 (C-terminally truncated form of S. elongatus KaiC) (domain or fragment, Synechococcus elongatus, UniProt Q79PF4 1-489, looked up)
chain: MTSAEMTSPNNNSEHQAIAKMRTMIEGFDDISHGGLPIGRSTLVSGTSGTGKTLFSIQFLYNGIIEFDEPGVFVTFEETPQDIIKNARSFGWDLAKLVDEGKLFILDASPDPEGQEVVGGFDLSALIERINYAIQKYRARRVSIDSVTSVFQQYDASSVVRRELFRLVARLKQIGATTVMTTERIEEYGPIARYGVEEFVSDNVVILRNVLEGERRRRTLEILKLRGTSHMKGEYPFTITDHGINIFPLGAMRLTQRSSNVRVSSGVVRLDEMCGGGFFKDSIILATGATGTGKTLLVSRFVENACANKERAILFAYEESRAQLLRNAYSWGMDFEEMERQNLLKIVCAYPESAGLEDHLQIIKSEINDFKPARIAIDSLSALARGVSNNAFRQFVIGVTGYAKQEEITGLFTNTSDQFMGAHSITDSHISTITDTIILLQYVEIRGEMSRAINVFKMRGSWHDKAIREFMISDKGPDIKDSFRNFERI
modifications: persistently phosphorylated (hyper-phosphorylated); sites not determined for this sample
On to B1, for which the stoichiometry N (usually the number of molecules, sites or subunits per partner or assembly) in the series “cryo-EM structure” is 6.

B2: wild-type Synechococcus elongatus KaiB (natural protein, UniProt Q79PF5 1-102, looked up)
chain: MSPRKTYILKLYVAGNTPNSVRALKTLKNILEVEFQGVYALKVIDVLKNPQLAEEDKILATPTLAKVLPLPVRRIIGDLSDREKVLIGLDLLYGELQDSDDF
Take B2: the binding result with KaiC-R468C is “binds”.
